B1: platelet-derived growth factor-BB (wild type) (natural protein, UniProt P31240 82-190, looked up)
chain: SLGSLAAAEPAVIAECKTRTEVFQISRNLIDRTNANFLVWPPCVEVQRCSGCCNNRNVQCRASQVQMRPVQVRKIEIVRKKPIFKKATVTLEDHLACKCETIVTPRPVT
notes: platelet-derived growth factor subunit B; also called PDGF-BB; source: bought: Peprotech
B2: human fibrinogen (complex)
chain 1: ADSGEGDFLAEGGGVRGPRVVERHQSACKDSDWPFCSDEDWNYKCPSGCRMKGLIDEVNQDFTNRINKLKNSLFEYQKNNKDSHSLTTNIMEILRGDFSSANNRDNTYNRVSEDLRSRIEVLKRKVIEKVQHIQLLQKNVRAQLVDMKRLEVDIDIKIRSCRGSCSRALAREVDLKDYEDQQKQLEQVIAKDLLPSRDRQHLPLIKMKPVPDLVPGNFKSQLQKVPPEWKALTDMPQMRMELERPGGNEITRGGSTSYGTGSETESPRNPSSAGSWNSGSSGPGSTGNRNPGSSGTGGTATWKPGSSGPGSTGSWNSGSSGTGSTGNQNPGSPRPGSTGTWNPGSSERGSAGHWTSESSVSGSTGQWHSESGSFRPDSPGSGNARPNNPDWGTFEEVSGNVSPGTRREYHTEKLVTSKGDKELRTGKEKVTSGSTTTTRRSCSKTVTKTVIGPDGHKEVTKEVVTSEDGSDCPEAMDLGTLSGIGTLDGFRHRHPDEAAFFDTASTGKTFPGFFSPMLGEFVSETESRGSESGIFTNTKESSSHHPGIAEFPSRGKSSSYSKQFTSSTSYNRGDSTFESKSYKMADEAGSEADHEGTHSTKRGHAKSRPV
chain 2: QGVNDNEEGFFSARGHRPLDKKREEAPSLRPAPPPISGGGYRARPAKAAATQKKVERKAPDAGGCLHADPDLGVLCPTGCQLQEALLQQERPIRNSVDELNNNVEAVSQTSSSSFQYMYLLKDLWQKRQKQVKDNENVVNEYSSELEKHQLYIDETVNSNIPTNLRVLRSILENLRSKIQKLESDVSAQMEYCRTPCTVSCNIPVVSGKECEEIIRKGGETSEMYLIQPDSSVKPYRVYCDMNTENGGWTVIQNRQDGSVDFGRKWDPYKQGFGNVATNTDGKNYCGLPGEYWLGNDKISQLTRMGPTELLIEMEDWKGDKVKAHYGGFTVQNEANKYQISVNKYRGTAGNALMDGASQLMGENRTMTIHNGMFFSTYDRDNDGWLTSDPRKQCSKEDGGGWWYNRCHAANPNGRYYWGGQYTWDMAKHGTDDGVVWMNWKGSWYSMRKMSMKIRPFFPQQ
chain 3: YVATRDNCCILDERFGSYCPTTCGIADFLSTYQTKVDKDLQSLEDILHQVENKTSEVKQLIKAIQLTYNPDESSKPNMIDAATLKSRKMLEEIMKYEASILTHDSSIRYLQEIYNSNNQKIVNLKEKVAQLEAQCQEPCKDTVQIHDITGKDCQDIANKGAKQSGLYFIKPLKANQQFLVYCEIDGSGNGWTVFQKRLDGSVDFKKNWIQYKEGFGHLSPTGTTEFWLGNEKIHLISTQSAIPYALRVELEDWNGRTSTADYAMFKVGPEADKYRLTYAYFAGGDAGDAFDGFDFGDDPSDKFFTSHNGMQFSTWDNDNDKFEGNCAEQDGSGWWMNKCHAGHLNGVYYQGGTYSKASTPNGYDNGIIWATWKTRWYSMKKTTMKIIPFNRLTIGEGQQHHLGGAKQAGDV
modifications: Plasma-derived disulfide-linked hexamer (alpha-beta-gamma)2, fibrinopeptides A and B retained, N-glycosylated. Isoforms are not printed: the major plasma forms are taken by convention, i.e. the …
B3: interleukin-1 receptor antagonist (wild type) (natural protein, UniProt P25085 27-178, looked up)
chain: RPSGKRPCKMQAFRIWDTNQKTFYLRNNQLIAGYLQGPNIKLEEKIDMVPIDLHSVFLGIHGGKLCLSCAKSGDDIKLQLEEVNITDLSKNKEEDKRFTFIRSEKGPTTSFESAACPGWFLCTTLEADRPVSLTNTPEEPLIVTKFYFQEDQ
notes: interleukin-1 receptor antagonist protein; also called IL-1Ra; source: bought: Peprotech
B4: neurturin (natural protein, human, UniProt Q99748 96-197, looked up)
chain: ARLGARPCGLRELEVRVSELGLGYASDETVLFRYCAGACEAAARVYDLGLRRLRQRRRLRRERVRAQPCCRPTAYEDEVSFLDAHSRYHTVHELSARECACV
notes: neurturin; also called NRTN; source: bought: Peprotech (carrier-free recombinant)
B5: placenta growth factor-2 (natural protein, human, UniProt P49763-3 19-170, looked up)
chain: LPAVPPQQWALSAGNGSSEVEVVPFQEVWGRSYCRALERLVDVVSEYPSEVEHMFSPSCVSLLRCTGCCGDENLHCVPVETANVTMQLLKIRSGDRPSYVELTFSQHVRCECRPLREKMKPERRRPKGRGKRRREKQRPTDCHLCGDAVPRR
notes: placenta growth factor, PlGF-2; also called PlGF; PlGF-2; source: bought: Peprotech (carrier-free recombinant)
B6: amphiregulin (natural protein, human, UniProt P15514 101-187, looked up)
chain: SVRVEQVVKPPQNKTESENTSDKPKRKKKGGKNGKNRRNRKKKNPCNAEFQNFCIHGECKYIEHLEAVTCKCQQEYFGERCGEKSMK
notes: amphiregulin; it is a soluble form, not the 252 aa precursor (surmise); also called AREG; source: bought: Peprotech (carrier-free recombinant)

Assays:
Details in all cases: both partners purified
human vitronectin [1] = biological target: T1, human vitronectin (human, UniProt P04004 20-478); assay: ELISA; plates coated with 100 nM ECM protein in PBS (1 h, 37 °C), blocked with 1% BSA in PBS-T; PDGF-BB or IL-1Ra variants at increasing concentrations in PBS-T with 0.1% BSA, 1 h at room temperature; detected with biotinylated antibodies; one site specific binding model; n = 3
T1 construct: vitronectin, human; source: bought: Peprotech

human tenascin C [2] = biological target: T2, human tenascin C (human, UniProt P24821 23-2201); assay: as above
T2 construct: tenascin C, human; also called Tenacin C; source: bought: R&D Systems

human plasma fibronectin [3] = biological target: human plasma fibronectin (human); assay: as above
human fibrinogen [4] = biological target: B2; assay: as above
Target sequence in this assay (P02671 36-866): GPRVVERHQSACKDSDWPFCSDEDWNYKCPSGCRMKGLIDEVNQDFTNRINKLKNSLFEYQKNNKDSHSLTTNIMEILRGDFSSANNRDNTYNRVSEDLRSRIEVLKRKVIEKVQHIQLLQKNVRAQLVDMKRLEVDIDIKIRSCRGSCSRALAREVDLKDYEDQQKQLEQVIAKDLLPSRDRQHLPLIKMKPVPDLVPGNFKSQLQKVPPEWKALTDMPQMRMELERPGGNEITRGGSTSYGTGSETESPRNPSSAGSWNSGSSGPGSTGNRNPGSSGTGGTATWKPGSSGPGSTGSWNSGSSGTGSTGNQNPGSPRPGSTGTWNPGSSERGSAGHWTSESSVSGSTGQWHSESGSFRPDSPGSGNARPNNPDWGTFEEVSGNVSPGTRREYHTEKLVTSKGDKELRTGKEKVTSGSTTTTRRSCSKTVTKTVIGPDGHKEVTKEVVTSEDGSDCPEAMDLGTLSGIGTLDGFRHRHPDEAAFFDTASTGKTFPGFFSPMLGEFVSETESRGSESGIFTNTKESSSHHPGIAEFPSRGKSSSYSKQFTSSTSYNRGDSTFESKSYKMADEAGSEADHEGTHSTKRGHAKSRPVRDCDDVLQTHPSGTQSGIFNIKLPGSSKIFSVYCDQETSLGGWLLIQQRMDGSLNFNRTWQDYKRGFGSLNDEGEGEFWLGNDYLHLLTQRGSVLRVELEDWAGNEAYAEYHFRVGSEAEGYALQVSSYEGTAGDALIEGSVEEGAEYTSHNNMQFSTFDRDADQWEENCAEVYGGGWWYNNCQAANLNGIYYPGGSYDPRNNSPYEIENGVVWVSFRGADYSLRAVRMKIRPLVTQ

AREG26-38/IL-1Ra = biological target: T3, AREG26-38/IL-1Ra (human | ); assay: as above
T3 construct: interleukin-1 receptor antagonist protein; Both the His tag and AREG26-38 are said to stand at the N-terminus; also called AREG126-138/IL-1Ra; engineered IL-1Ra; source: E. coli BL21 (DE3), pET-22b, soluble fraction, purified (Ni column)

AREG26-38/PDGF-BB = biological target: T4, AREG26-38/PDGF-BB (human | ); assay: as above
T4 construct: platelet-derived growth factor subunit B; AREG26-38 at the N-terminus of PDGF-B; also called AREG126-138/PDGF-BB; engineered PDGF-BB

human vitronectin [5] = biological target: T1, human vitronectin; assay: ELISA; plates coated with 100 nM PlGF-2, AREG or NRTN (1 h, 37 °C), blocked with 1% BSA in PBS-T; ECM proteins at increasing concentration in PBS-T with 0.1% BSA; bound ECM protein detected with HRP-conjugated antibodies; one site specific binding model; n = 3
human tenascin C [6] = biological target: T2, human tenascin C; assay: as above
human plasma fibronectin [7] = biological target: human plasma fibronectin (human); assay: as above
human fibrinogen [8] = biological target: B2; assay: as above

T1 sequence (P04004 20-478): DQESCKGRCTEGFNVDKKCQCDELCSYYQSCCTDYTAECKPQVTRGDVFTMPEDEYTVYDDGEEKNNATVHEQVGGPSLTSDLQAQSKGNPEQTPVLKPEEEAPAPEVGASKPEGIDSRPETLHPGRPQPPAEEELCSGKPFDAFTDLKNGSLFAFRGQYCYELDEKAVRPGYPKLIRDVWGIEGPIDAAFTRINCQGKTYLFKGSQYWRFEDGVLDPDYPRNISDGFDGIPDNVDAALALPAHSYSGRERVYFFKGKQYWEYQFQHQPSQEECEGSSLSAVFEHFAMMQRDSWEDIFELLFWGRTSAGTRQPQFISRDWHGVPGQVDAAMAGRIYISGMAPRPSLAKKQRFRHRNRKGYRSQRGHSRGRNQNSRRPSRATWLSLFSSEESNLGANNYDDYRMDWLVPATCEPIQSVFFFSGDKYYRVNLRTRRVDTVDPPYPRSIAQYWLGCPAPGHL
T2 sequence (P24821 23-2201): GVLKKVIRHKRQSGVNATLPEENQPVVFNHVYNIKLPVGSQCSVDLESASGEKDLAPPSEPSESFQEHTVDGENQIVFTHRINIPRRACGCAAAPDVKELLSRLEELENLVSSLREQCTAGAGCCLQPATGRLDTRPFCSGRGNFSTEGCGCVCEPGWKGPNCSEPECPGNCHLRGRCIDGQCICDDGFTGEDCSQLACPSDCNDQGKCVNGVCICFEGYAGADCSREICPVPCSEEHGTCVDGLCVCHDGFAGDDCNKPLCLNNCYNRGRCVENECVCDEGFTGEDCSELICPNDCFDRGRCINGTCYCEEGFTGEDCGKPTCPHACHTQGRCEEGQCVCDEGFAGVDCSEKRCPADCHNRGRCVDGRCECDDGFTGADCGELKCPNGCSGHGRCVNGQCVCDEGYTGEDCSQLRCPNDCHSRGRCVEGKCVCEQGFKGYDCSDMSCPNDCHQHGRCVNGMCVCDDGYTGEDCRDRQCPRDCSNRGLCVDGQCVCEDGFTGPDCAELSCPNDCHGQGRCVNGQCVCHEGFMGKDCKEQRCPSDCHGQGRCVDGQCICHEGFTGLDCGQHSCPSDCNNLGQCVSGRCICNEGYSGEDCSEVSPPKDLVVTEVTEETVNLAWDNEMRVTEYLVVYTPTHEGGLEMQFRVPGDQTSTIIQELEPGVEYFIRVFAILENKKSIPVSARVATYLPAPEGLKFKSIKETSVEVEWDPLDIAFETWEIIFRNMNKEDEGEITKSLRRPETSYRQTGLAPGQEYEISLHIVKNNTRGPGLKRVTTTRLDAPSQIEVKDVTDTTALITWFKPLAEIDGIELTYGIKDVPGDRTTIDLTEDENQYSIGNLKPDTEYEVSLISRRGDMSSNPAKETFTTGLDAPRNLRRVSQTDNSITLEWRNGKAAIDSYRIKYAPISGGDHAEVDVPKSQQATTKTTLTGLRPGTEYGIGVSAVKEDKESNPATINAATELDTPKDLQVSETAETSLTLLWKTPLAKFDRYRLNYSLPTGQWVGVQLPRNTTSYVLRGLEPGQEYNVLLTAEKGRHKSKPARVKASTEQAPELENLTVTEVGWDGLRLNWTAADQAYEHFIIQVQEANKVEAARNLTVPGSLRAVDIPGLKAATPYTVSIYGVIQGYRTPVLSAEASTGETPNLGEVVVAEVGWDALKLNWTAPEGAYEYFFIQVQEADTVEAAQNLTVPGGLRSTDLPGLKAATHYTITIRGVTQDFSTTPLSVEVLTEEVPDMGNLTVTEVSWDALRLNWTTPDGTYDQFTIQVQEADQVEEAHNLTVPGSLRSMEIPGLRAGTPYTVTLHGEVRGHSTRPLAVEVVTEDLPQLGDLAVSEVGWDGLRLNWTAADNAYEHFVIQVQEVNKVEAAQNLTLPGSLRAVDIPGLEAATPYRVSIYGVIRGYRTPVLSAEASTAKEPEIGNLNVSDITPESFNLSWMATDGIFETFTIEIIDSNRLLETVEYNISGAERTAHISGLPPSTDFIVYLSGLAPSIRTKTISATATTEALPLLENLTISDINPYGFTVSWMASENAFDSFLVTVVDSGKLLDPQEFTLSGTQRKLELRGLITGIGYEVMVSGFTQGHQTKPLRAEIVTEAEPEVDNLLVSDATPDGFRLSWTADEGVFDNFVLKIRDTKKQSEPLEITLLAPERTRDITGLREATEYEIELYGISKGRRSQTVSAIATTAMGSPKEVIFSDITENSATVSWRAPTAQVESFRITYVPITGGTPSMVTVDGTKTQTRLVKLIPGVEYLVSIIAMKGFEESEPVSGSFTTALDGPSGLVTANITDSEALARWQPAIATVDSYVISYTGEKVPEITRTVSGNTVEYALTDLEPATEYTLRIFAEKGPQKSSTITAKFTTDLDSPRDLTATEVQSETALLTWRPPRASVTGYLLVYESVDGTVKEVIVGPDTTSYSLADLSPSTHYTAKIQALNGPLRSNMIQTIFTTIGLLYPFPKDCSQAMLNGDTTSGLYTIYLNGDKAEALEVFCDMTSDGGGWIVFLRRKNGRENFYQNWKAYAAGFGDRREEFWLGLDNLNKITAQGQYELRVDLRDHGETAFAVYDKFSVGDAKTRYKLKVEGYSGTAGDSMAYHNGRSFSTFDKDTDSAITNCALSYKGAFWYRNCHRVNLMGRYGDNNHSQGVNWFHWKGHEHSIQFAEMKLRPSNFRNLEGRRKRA
T3 sequence (P02671 36-866): as the sequence (P02671 36-866) above
T4 sequence (P02671 36-866): as above

| Binder | Kd (human vitronectin [1]) [nM] | Kd (human tenascin C [2]) [nM] | Kd (human plasma fibronectin [3]) [nM] | Kd (human fibrinogen [4]) [nM] | Kd (AREG26-38/IL-1Ra) [nM] | Kd (AREG26-38/PDGF-BB) [nM] | Kd (human vitronectin [5]) [nM] | Kd (human tenascin C [6]) [nM] | Kd (human plasma fibronectin [7]) [nM] | Kd (human fibrinogen [8]) [nM] |
| --- | --- | --- | --- | --- | --- | --- | --- | --- | --- | --- |
| B1 | 29.7 | 87.8 | 74.2 | 210 |  |  |  |  |  |  |
| B2 |  |  |  |  | 16.9 | 13.9 |  |  |  |  |
| B3 | 96.5 | 137 | 153 | 640 |  |  |  |  |  |  |
| B4 |  |  |  |  |  |  | 53.1 | 55.7 | 79.4 | 390 |
| B5 |  |  |  |  |  |  | 13.2 | 79.4 | 17.2 | 14.1 |
| B6 |  |  |  |  |  |  | 9.3 | 11 | 8.9 | 7.4 |

Reference: article PMC10202959, “A superior extracellular matrix binding motif to enhance the regenerative activity and safety of therapeutic proteins” (NPJ Regenerative Medicine, 2023)
